Measurements: US10654939 (BEIJING MABWORKS BIOTECH, dated 2020)
Positions count from the first letter of the chain named. Like-named read-outs stand apart in the source and are kept apart here.

T1: rhesus CD40 expressed on HEK293A cells (rhesus monkey, UniProt P25942 21-277 (human entry))
T1 construct: also called HEK293A/rhesusCD40
T1 chain: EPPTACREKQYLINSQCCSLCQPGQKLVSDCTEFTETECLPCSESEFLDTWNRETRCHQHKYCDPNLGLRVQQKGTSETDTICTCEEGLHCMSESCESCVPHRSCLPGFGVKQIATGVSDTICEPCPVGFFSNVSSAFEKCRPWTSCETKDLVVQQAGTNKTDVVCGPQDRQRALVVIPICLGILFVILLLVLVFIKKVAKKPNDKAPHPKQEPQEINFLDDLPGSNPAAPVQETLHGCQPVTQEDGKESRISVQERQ

B1: chimeric 13A2 antibody (antibody, human IgG2, kappa, V domains shown)
VH: EVKLEQSGPGLVKPSQSLSLTCSVTGYSITTNYYWNWIRQFPGNKLEWMGYINYDGSNNYNPSLKNRISITRDTSKNQFFLKLNSVTTEDTATYYCARLDYWGQGTSVTVSS
VL: DIVMTQSPLSLPVSLGDQASISCRSSQSLENSNGNTFLNWFLQKPGQSPQLLIYKVSNRFSGVLDRFSGTGSGTDFTLTISRVEAEDLGVYFCLQVTHVPFTFGSGTKLEIKR
notes: Mouse variable regions with human IgG2/kappa constant regions
B2: 13A2-VH3VL2 (antibody, human IgG2, kappa, V domains shown)
VH: QVQLQESGPGLVKPSDTLSLTCAVSGYSITTNYYWNWIRQPPGNKLEWMGYINYDGSNNYNPSLKNRITISVDTSKNQFSLKLSSVTAVDTAVYYCARLDYWGQGTLVTVSS
VL: DVVLTQSPLSLPVTLGQPASISCRSSQSLENSNGNTFLNWFQQRPGQSPRLLIYKVSNRFSGVPDRFSGSGSGTDFTLKISRVEAEDVGVYYCLQVTHVPFTFGQGTKLEIKR
notes: Humanized, human IgG2/kappa
B3: 13A2-VH3VL3 (antibody, human IgG2, kappa, V domains shown)
VH: B2 VH
VL: B2 VL with Y92F, Q105S
notes: Humanized, human IgG2/kappa
B4: 7B4-VH2VL2 (antibody, V domains shown)
VH: B2 VH with N44K, K45G, N53K
VL: B2 VL
notes: Humanized, human IgG2/kappa; also called 7B4H2L2

Assays:
[1] = target: T2, mouse CD40 expressed on HEK293A cells (mouse, UniProt P27512 20-289); assay: FACS, HEK293A/mouseCD40 cells
T2 construct: also called HEK293A/mouseCD40
T2 sequence (P27512 20-289 limits assumed): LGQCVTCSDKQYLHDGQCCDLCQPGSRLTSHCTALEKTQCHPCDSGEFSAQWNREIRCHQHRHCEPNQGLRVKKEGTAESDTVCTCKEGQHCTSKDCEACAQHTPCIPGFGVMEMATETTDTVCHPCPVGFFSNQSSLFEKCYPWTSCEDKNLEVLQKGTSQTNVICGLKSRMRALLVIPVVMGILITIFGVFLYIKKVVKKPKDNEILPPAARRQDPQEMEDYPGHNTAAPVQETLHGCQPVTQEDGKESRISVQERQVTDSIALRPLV

[2] = target: T3, recombinant human CD40 (ECD)-his (human, UniProt P25942 21-193); assay: SPR (Biacore 8K), hCD40(ECD)-his coupled to chip, antibody injected
T3 construct: Bought protein; also called hCD40(ECD)-his; TNFRSF5
Method: SPR assays were used to determine the binding affinity of the chimetic or humanized anti-CD40 antibodies to human CD40 with the BIAcore™ 8K instrument (GE Life Sciences). Briefly, 100-200 response units (RU) of human CD40 (ECD)-his protein (Sino Biological, CN, Cat #: 10774-H08H) were coupled to CM5 biosensor chips (Cat #: BR-1005-30, GE Life Sciences), followed by blocking of un-reacted groups with 1M ethanolamine. Serially diluted antibodies at concentrations ranging from […] were injected into the SPR running buffer (HBS-EP buffer, pH7.4, GE Life Sciences; US; Cat #: BR-1006-69) at 30 μL/minute. The binding capacity was calculated with the RUs of blank controls subtracted. The association rate (k_a) and dissociation rate (k_d) were calculated using the one-to-one Langmuir binding model (BIA Evaluation Software, GE Life Sciences). The equilibrium dissociation constant K_D was calculated as the k_d/k_a ratio.

[3] = target: T4, CD40 ECD Truncant 5 (amino acid 21-37 & 61-193) with mFc-tag (human); assay: ELISA on recombinant CD40 ECD proteins with mFc tag (Example 16); antibody concentration not given
T4 construct: Truncated CRD1; mFc-tag at the C terminus; also called CRD delta1/2/3/4
T4 sequence (chain, as listed by the source limits assumed): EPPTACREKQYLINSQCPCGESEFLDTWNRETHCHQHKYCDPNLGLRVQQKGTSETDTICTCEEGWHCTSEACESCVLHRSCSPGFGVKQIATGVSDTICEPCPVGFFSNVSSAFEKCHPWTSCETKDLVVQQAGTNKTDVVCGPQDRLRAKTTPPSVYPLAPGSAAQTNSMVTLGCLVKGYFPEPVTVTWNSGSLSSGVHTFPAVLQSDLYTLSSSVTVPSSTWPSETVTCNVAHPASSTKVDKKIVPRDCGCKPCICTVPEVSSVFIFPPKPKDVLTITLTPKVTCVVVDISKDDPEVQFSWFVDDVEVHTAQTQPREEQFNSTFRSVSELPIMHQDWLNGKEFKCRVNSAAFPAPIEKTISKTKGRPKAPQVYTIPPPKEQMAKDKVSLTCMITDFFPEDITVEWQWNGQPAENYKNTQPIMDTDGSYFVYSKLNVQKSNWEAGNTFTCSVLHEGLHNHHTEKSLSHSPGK

[4] = target: Full-length CD40 ECD (amino acid 21-193, human CD40) with mFc-tag (human); assay: as above
[5] = target: T5, CD40 ECD Truncant 3 (amino acid 145-193) with mFc-tag (human); assay: as above
T5 construct: mFc-tag at the C terminus; also called CRD4
T5 sequence (chain, as listed by the source limits assumed): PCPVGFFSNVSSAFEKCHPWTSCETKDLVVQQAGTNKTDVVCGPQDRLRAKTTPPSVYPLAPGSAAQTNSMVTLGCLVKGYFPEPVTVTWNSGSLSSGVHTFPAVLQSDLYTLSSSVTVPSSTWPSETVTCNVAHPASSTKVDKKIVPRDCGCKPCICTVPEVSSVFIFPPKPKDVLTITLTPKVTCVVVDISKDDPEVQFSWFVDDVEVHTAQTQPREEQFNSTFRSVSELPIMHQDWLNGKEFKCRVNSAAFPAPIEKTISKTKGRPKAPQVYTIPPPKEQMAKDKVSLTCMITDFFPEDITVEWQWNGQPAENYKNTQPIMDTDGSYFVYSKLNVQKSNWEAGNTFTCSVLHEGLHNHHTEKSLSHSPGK

[6] = target: T6, CD40 ECD Truncant 4 (amino acid 38-193) with mFc-tag (human); assay: as above
T6 construct: Truncated CRD1; mFc-tag at the C terminus; also called CRD delta1/2/3/4
T6 sequence (chain, as listed by the source limits assumed): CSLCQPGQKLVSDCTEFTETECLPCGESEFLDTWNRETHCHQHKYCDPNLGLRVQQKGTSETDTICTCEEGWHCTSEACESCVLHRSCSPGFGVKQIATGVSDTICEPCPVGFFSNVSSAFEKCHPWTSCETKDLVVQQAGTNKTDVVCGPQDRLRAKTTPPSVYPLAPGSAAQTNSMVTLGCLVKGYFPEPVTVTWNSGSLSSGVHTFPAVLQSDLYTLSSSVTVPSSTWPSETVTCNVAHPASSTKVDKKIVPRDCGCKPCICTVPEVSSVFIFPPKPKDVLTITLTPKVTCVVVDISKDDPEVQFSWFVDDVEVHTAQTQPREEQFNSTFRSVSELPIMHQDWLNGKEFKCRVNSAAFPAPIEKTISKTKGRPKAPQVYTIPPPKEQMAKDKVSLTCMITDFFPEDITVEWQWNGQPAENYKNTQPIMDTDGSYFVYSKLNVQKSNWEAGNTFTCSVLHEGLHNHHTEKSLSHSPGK

[7] = target: T7, CD40 ECD Truncant 2 (amino acid 104-193) with mFc-tag (human); assay: as above
T7 construct: mFc-tag at the C terminus; also called CRD3/4
T7 sequence (chain, as listed by the source limits assumed): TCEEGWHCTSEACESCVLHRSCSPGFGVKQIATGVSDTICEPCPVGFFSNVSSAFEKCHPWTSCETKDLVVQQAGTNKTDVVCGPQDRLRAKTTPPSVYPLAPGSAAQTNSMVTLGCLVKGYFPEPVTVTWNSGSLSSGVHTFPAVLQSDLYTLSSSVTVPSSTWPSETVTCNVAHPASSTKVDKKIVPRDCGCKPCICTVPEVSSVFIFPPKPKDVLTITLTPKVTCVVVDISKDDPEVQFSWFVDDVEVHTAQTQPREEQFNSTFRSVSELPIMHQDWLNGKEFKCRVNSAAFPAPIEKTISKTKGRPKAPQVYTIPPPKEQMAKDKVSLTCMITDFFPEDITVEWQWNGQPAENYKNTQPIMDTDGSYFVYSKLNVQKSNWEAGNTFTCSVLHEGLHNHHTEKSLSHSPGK

[8] = target: T8, CD40 ECD Truncant 1 (amino acid 61-193) with mFc-tag (human); assay: as above
T8 construct: mFc-tag at the C terminus; also called CRD2/3/4
T8 sequence (chain, as listed by the source limits assumed): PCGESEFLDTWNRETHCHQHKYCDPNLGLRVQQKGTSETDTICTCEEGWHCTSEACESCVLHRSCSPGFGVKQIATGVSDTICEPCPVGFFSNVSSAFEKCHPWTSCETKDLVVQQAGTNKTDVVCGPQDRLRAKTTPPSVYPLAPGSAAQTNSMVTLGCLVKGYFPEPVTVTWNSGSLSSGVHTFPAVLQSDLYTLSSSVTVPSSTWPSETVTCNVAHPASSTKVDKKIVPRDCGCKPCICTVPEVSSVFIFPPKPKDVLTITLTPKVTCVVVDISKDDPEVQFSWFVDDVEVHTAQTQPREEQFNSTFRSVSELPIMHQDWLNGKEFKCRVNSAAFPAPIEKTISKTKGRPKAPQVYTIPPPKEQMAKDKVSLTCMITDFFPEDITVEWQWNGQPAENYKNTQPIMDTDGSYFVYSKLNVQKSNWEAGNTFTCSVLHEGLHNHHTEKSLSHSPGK

[9] = target: T9, CD40 ECD Mutant 1 (amino acid 21-193, R7A/E8A) with mFc-tag (human); assay: as above
T9 construct: Signal peptide left out
T9 sequence (chain, as listed by the source limits assumed, stated change not applied): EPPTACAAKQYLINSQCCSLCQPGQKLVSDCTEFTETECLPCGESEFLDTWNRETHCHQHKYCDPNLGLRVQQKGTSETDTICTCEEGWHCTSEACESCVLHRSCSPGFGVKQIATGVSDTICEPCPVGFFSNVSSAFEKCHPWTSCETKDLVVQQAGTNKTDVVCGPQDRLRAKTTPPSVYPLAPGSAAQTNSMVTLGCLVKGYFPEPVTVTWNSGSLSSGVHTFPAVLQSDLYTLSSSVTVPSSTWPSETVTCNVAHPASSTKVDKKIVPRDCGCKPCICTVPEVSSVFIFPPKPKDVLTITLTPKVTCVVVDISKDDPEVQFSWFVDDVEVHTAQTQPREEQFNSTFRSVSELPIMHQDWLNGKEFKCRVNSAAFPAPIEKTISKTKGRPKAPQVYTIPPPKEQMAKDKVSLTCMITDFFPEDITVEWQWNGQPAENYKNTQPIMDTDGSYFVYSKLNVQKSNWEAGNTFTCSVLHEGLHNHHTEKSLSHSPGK

[10] = target: T1, rhesus CD40 expressed on HEK293A cells; assay: FACS on HEK293A/rhesus CD40 cells, serially diluted antibody (Example 14, protocol of Example 5)
Method: Example 5 Mouse Anti-CD40 Monoclonal Antibodies Bound to Human and Rhesus CD40 Expressed on HEK293A Cells To further determine whether anti-CD40 antibodies bound to human, monkey or mouse CD40 expressed on HEK293A cells, a cell-based binding assay by FACS was performed using the HEK293A cells stably overexpressing human, monkey or mouse CD40 as generated in Example 1, respectively. Briefly, 10^5 HEK293A cells were seeded into each well of the 96-well plates and serially diluted anti-CD40 antibodies were added to the plates. After incubated at 4° C. for 1 hour, plates were washed 3 times with PBST. Then, an APC coupled Goat Anti-Mouse IgG (BioLegen, US, Cat #: 405308) diluted 500× was added to the plates. After incubation at 4° C. for 1 hour, the plates were washed with PBS for 3 times and then cell fluorescence was monitored using a FACS machine (BD).
The chimeric and humanized anti-CD40 antibodies were further characterized for their ability of binding to HEK293A/humanCD40 cells and HEK293A/rhesus CD40 cells, following the protocols described in Example 5. They were also tested for their ability to activate CD40 signaling in HEK-Blue assay, and to promote dendritic cell maturation, following the protocols in Example 7 and Example 9, respectively, the dendritic cells collected form three healthy human donors. IL-12(p40) secretion by the dendritic cells was measured by using human IL12(p40) ELISA kit (BD, US, Cat #: 551116) following themanufactor's instruction.

[11] = target: T3, recombinant human CD40 (ECD)-his; assay: ELISA on coated recombinant TNFRSF proteins, serially diluted antibody (Example 17)
[12] = target: T3, recombinant human CD40 (ECD)-his; assay: as above; remark: listed apart in the source

Row | Binder | binding result [1] | Kd [2] [nM] | koff [2] [s⁻¹] | kon [2] [M⁻¹ s⁻¹] | binding result [3] | binding result [4] | binding result [5] | binding result [6] | binding result [7] | binding result [8] | binding result [9] | binding result [10] | EC50 (read off the curve) [11] [µg/mL] | EC50 (read off the curve) [10] [µg/mL] | EC50 (read off the curve) [12] [µg/mL]
1 | B1 | no binding | 3.58 | 0.00173 | 484000 | no binding | binds | no binding | no binding | no binding | no binding | binds | – | – | – | –
2 | B2 | – | 2.93 | 0.00242 | 825000 | no binding | binds | no binding | no binding | no binding | no binding | binds | binds | – | – | –
3 | B3 | – | 7.68 | 0.00459 | 598000 | no binding | binds | no binding | no binding | no binding | no binding | binds | binds | ~0.02 | – | –
4 | B4 | – | 2.91 | 0.00581 | 2e+06 | – | – | – | – | – | – | – | – | – | ~0.2 | ~0.02
